# Entries after “also recorded” stand apart in the source; their conditions may differ.
# B1: seribantumab: anti-ERBB3 (HER3) fully human monoclonal antibody; heavy and light chains SEQ ID NOs: 12 and 13 (antibody)
# heavy: EVQLLESGGGLVQPGGSLRLSCAASGFTFSHYVMAWVRQAPGKGLEWVSSISSSGGWTLYADSVKGRFTISRDNSKNTLYLQMNSLRAEDTAVYYCTRGLKMATIFDYWGQGTLVTVSSASTKGPSVFPLAPCSRSTSESTAALGCLVKDYFPEPVTVSWNSGALTSGVHTFPAVLQSSGLYSLSSVVTVPSSNFGTQTYTCNVDHKPSNTKVDKTVERKCCVECPPCPAPPVAGPSVFLFPPKPKDTLMISRTPEVTCVVVDVSHEDPEVQFNWYVDGVEVHNAKTKPREEQFNSTFRVVSVLTVVHQDWLNGKEYKCKVSNKGLPAPIEKTISKTKGQPREPQVYTLPPSREEMTKNQVSLTCLVKGFYPSDIAVEWESNGQPENNYKTTPPMLDSDGSFFLYSKLTVDKSRWQQGNVFSCSVMHEALHNHYTQKSLSLSPGK
# light: QSALTQPASVSGSPGQSITISCTGTSSDVGSYNVVSWYQQHPGKAPKLIIYEVSQRPSGVSNRFSGSKSGNTASLTISGLQTEDEADYYCCSYAGSSIFVIFGGGTKVTVLGQPKAAPSVTLFPPSSEELQANKATLVCLVSDFYPGAVTVAWKADGSPVKVGVETTKPSKQSNNKYAASSYLSLTPEQWKSHRSYSCRVTHEGSTVEKTVAPAECS
# Key:
# HBECp53 cells = assay: AlamarBlue viability dose-response (growth inhibition); assay type: cell-based, human; conditions: 96 hours
# Experimental: (§1) Expression of […] (FIG. 1A) or SLC3A2-NRG1 (FIG. 2B) fusions in MDA-MB-175-VII and LUAD-0061AS3 cells, respectively, was determined by RT-PCR. The HBECp53 (NRG1 fusion negative) and HBECp53-SLC3A2-NRG1 cells were used as negative and positive controls, respectively. […] Viability results represent the mean±SEM of 2-5 independent experiments in which each condition was assayed in triplicate determinations. Viability data were analyzed by nonlinear regression and the IC50 values for growth inhibition and the 95% confidence interval were determined with GraphPad Prism 8. […] Results represent the mean±SD for one experiment in which each condition was assayed in duplicate.
# (§2) For the time-course experiments, cells were plated at a density of 5,000 (HCC-95) or 10,000 (all others) cells per well in 12-well tissue culture plates, and then treated 24 hours later (time 0) with the respective agents. […] Cells were trypsinized and counted at the relevant time-point shown on the graphs. For dose-response studies, cells were plated at a density of 7,500-10,000 cells in white clear-bottom 96-well plates in a volume of […] complete growth media and […] chemicals added at 10× concentration (to achieve 1× concentration) in a final volume of […]. After 96-hour incubation, […] AlamarBlue cell viability reagent was added to achieve a final concentration of 10%. AlamarBlue is a cell permeable […] dye that is reduced when it enters the mitochondria and emits fluorescence at a different wavelength (Gloeckner H, J. Immunol. Methods 2001; 252:131-8). Fluorescence was measured (excitation, 530 nm and emission, 585 nm) using a […] Spectramax M2 Fluorescence Plate Reader, as described previously (Somwar R, J. Biomol. Screen 2009; 14:1176-84). In each experiment, background fluorescence was determined in cells treated with […] of the 20S proteasome inhibitor, carfilzomib, which is toxic to most cells at high concentrations, and was subtracted from all values. There were 3-4 replicates of each condition. Relative IC50 values and 95% confidence interval values were determined by nonlinear regression analysis using GraphPad Prism 8 software using either a variable slope model or in cases where inhibition was only partial, a three-parameter fit was used. […] Each condition was assayed in triplicate in 2-5 independent experiments.
# (§3) Cells expressing NRG1 fusions rely on activation of HER3 for growth and survival. […] The estimated IC50 values obtained for growth inhibition are determined.
# LUAD-0061AS3 cells = assay: as above; assay type: cell-based, human; conditions: 96 hours
# Experimental: as §1, §2, §3
# MCF-7 cells = assay: as above; assay type: cell-based, human; conditions: 96 hours
# Experimental: as §1, §2, §3
# MDA-MB-175-VII cells [1] = assay: as above; assay type: cell-based, human; conditions: 96 hours
# Experimental: as §1, §2, §3
# MDA-MB-175-VII cells [2] = assay: Time-course growth by cell counting; assay type: cell-based, human
# Experimental: as §1, §2
# In these experiments, the MDA-MB-175 and LUAD-0061AS3 cell lines, isogenic HBECp53 cells ectopically expressing a CD74-NRG1 fusion, and the NRG1-amplified lung cancer cell line, HCC-95 (FIGS. 1E-H) were used. […] Afatinib sensitivity of HCC-95 cells was not examined in this study.
# [3] = test system: EGFR, HER2, HER3, HER4, downstream signaling, apoptosis and cell-cycle proteins in MDA-MB-175-VII cells; assay: Western blotting of protein phosphorylation and expression; assay type: cell-based, human
# Experimental: Whole-cell extracts were prepared after all treatments and subjected to SDS-PAGE, followed by immunoblotting for the phosphorylated (p) or total (t) proteins shown in each panel. All Western blotting studies were conducted at least two times and representative immunoblots of phosphorylated (p) and total (t) proteins are shown.
# (§4) These events likely culminate in inhibition of growth and impaired survival.
# As observed with phosphor-ylation of some proteins, cyclin D1 level began to be restored by 12 hours (FIG. 4D).
# [4] = test system: HER2, HER3, EGFR and downstream effectors in HCC-95 cells; assay: Western blotting of protein phosphorylation; assay type: cell-based, human
# Excerpt: as §4
# LUAD-0061AS3 PDX tumors = assay: NSCLC PDX model efficacy (SLC3A2-NRG1); assay type: in vivo, mice
# Experimental: Characterization of the […] PDX model. H&E staining, TTF-1, and phospho-HER3 IHC (FIG. 5A, left to right). […] (FIG. 5B). Tumor volumes were measured twice weekly and plotted overtime. Results represent the mean±SEM. […] Western blotting was performed twice for each protein and representative immunoblots of phosphorylated (p) and total (t) proteins are shown (FIG. 5C).
# Crushed PDX tumor samples were mixed with Matrigel (50%) and injected into the subcutaneous flank of 6-week-old female NSG (LUAD-0061AS3) or Balb/c nude (OV-10-0050) mice. When tumors reached approximately 100-150 mm3, mice were randomly assigned to groups of 5-8 and treatment was commenced. There were 2 mice per group with bilateral flank tumors for the protein phosphorylation/expression study in the LUAD-0061AS3 PDX model. Drugs were administered once, and then tumors were collected at 2, 24, and 168 hours posttreatment. Afatinib was administered by oral gavage once daily as a suspension (in 0.5% methylcellulose-0.4% Tween-80) on a 5-days-on and 2-days-off schedule. […] Mice were observed daily throughout the treatment period for signs of morbidity and mortality. Tumor length and width and animal weights were measured twice weekly. Tumor volume was calculated using the empirical formula V=length×width 2×0.52. The percentage change in tumor volume of each tumor was calculated using the formula [(V2−V1)/V1)]×100, where V1 is the starting tumor volume and V2 is the final tumor volume.
# The 5 mg/kg daily dose of afatinib is equivalent to the human dose of […] daily, which is the maximum approved dose for patients.
# The tumor volume as a function of time is illustrated in FIG. 5B, and the AUC computed for each group to facilitate comparison of tumor volume between groups at the last date all groups had surviving animals (day 35) was determined. […] The highest dose of afatinib (15 mg/kg) was also effective at causing regression of six of seven tumors in the.
molecule,measurement,setting,value
B1,IC50,HBECp53 cells; AlamarBlue,203 µM
same,effect on growth,HBECp53 cells; no NRG1 fusion,minimal effect
same,IC50,LUAD-0061AS3 cells; AlamarBlue,1.4 µM
same,effect on growth,LUAD-0061AS3 cells; dose-response,reduced growth in a dose-dependent manner
same,IC50,MCF-7 cells; AlamarBlue,45.2 µM
same,effect on growth,MCF-7 cells; no NRG1 fusion,minimal effect
same,IC50,MDA-MB-175-VII cells [1]; AlamarBlue,0.02 µM
same,effect on growth,MDA-MB-175-VII cells [1]; dose-response,reduced growth in a dose-dependent manner
same,time at which growth was slowed after start of treatment,"MDA-MB-175-VII cells [2]; seribantumab 0.1, 1, 10 μmol/L",24 h
same,cell growth over time,"MDA-MB-175-VII cells [2]; seribantumab 1 and 10 μmol/L, 12 days",growth was blocked for the entire 12-day period
same,phosphorylation of AKT over time,"[3]; 2 mmol/L seribantumab, up to 24 hours",remained completely inhibited for the entire 24-hour treatment period
same,expression of proapoptotic proteins cleaved-PARP and PUMA,"[3]; seribantumab, 6-24 hours",elevated
same,level of cyclin D1,"[3]; seribantumab, up to 24 hours",undetectable by 6 hours
same,"time to full inhibition of phosphorylation of HER3, HER4, and downstream signaling","[3]; seribantumab, up to 24 hours",30 min
same,"phosphorylation of HER3, HER2, EGFR, and HER4","[3]; serum-starved, 3 hours",fully inhibited
same,EGFR phosphorylation,[4],little effect
same,"phosphorylation of HER2, HER3, and downstream effectors",[4],inhibited phosphorylation
same,tumors with regression,LUAD-0061AS3 PDX tumors; 0.75 mg seribantumab twice weekly,four of seven
same,efficacy compared with afatinib,LUAD-0061AS3 PDX tumors; 1 mg BIW seribantumab vs 15 mg/kg daily afatinib,as effective as the 15 mg/kg daily dose of afatinib; also recorded: as effective as the highest dose of afatinib
same,tumors with regression,LUAD-0061AS3 PDX tumors; 1 mg seribantumab twice weekly,six of seven
same,maximum tumor reduction,"LUAD-0061AS3 PDX tumors; 1 mg seribantumab twice weekly, by day 42",57.2%±2.6%
same,tumor volume,"LUAD-0061AS3 PDX tumors; all doses of seribantumab tested (0.6, 0.75, 1 mg twice weekly)",bigger decrease in tumor volume
same,tumor regression,LUAD-0061AS3 PDX tumors; dosage lower than that used in human trials,more than 50%

# Reference: patent publication US20220288204A1, “DOSAGE AND ADMINISTRATION OF ANTI-ERBB3 (HER3) MONOCLONAL ANTIBODIES TO TREAT TUMORS ASSOCIATED WITH NEUREGULIN 1 (NRG1) GENE FUSIONS” (ELEVATION ONCOLOGY, INC., priority 2021, published 2022)
